Assay results reported in patent US20060239990A1, “Protein Arginine N-Methyltransferase 2 (PRMT-2)” (priority 2003, published 2006).

T1: RB (Homo sapiens, UniProt P06400)
T1 construct: coding region of RB cDNA was subcloned into pGEX-6P (Amersham/Pharmacia) for generation of GST-RB; made in house
T1 sequence (P06400 1-928): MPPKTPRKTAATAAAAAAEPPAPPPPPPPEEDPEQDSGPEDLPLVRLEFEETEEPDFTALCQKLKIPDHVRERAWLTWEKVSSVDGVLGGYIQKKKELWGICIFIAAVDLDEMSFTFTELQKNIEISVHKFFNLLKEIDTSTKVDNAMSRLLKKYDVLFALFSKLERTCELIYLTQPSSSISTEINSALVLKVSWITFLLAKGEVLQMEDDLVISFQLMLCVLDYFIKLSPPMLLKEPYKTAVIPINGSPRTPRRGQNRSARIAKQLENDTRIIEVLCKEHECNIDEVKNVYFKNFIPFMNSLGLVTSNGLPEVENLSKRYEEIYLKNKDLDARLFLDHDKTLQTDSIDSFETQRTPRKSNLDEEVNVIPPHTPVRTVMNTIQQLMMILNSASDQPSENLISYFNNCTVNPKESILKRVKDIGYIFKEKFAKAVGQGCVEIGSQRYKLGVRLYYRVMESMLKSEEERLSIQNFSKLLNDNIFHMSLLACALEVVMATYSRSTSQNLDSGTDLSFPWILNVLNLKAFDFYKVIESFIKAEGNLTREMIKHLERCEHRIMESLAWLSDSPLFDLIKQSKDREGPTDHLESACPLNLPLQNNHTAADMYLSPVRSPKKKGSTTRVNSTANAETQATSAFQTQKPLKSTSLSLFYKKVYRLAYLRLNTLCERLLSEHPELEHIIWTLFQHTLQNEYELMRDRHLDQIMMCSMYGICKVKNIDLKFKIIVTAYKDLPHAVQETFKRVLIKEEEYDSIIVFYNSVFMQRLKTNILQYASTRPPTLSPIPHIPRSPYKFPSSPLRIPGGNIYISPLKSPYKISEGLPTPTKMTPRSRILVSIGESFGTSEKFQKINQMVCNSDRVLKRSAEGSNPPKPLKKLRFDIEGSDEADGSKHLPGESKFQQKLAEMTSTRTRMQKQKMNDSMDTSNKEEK


Legend:
[1] = test system: NF-κB; assay: NF-κB luciferase reporter assay in 293T cells; type: cell-based, human; settings: 1 μg expression construct, 100 ng 5 κB luciferase reporter
Experimental: Cell culture, transfection, and reporter gene assays. The E1A-transformed, human kidney cell line, 293, and NIH-3T3 cells were maintained in Dulbecco's Modified Eagle Medium (DMEM) supplemented with 10% fetal calf serum and penicillin-streptomycin at 37° C. in 5% carbon dioxide in tissue culture grade Petri dishes. PRMT-2−/− mouse embryo fibroblasts (MEFs) and wild type MEFs were prepared from day 13.5 embryos and maintained in DMEM supplemented with 10% fetal calf serum. MEFs at passage 4 were used in this experiment. Lipofectamine Plus™ reagent (Boehringer Mannheim) was used to transfect both 293 and NIH-3T3 cells according to directions from the manufacturer. […] TNF-α stimulation of cells was done using recombinant TNF-α (200 U/ml) for 12 hours. […] CAT assays were performed essentially as described in Leung, K. & Nabel, G. J. Nature 333, 776-778 (1988). To analyze the κB-reporter activity in MEFs, cells were transfected with the reporter (2×kB-Luc) and PRL-TK vector (Promega) using FuGENE6 transfection reagent (Roche). Luciferase activity was analyzed by Dual-Luciferase Reporter Assay System (Promega).
To map the domains responsible for inhibition of HIV transcription, truncation and point mutations were made in PRMT2 (FIG. 1D) and co-transfected with an NF-κB reporter in 293T cells. PRMT2-A represents an alternatively spliced form of PRMT2 found in the expressed sequence tag (EST) database. This isoform contains the first 218 amino acids of PRMT2 and differs from full length PRMT2 by the absence of the less conserved COOH-terminal domain. PRMT2-N was generated by introducing a stop codon after amino acid 95 before the putative Ado-Met domain of PRMT2. To analyze the role of the Ado-Met domain further, another mutant, PRMT2-4A, was prepared in which 141ILDV144 (SEQ ID NO:5) in this region were altered to four consecutive alanines to compare the effects of point mutations in this highly conserved region.
The mechanism and site of action of PRMT2 in the NF-κB signaling pathway was further defined by co-transfection of PRMT2 and its mutants with different regulators in this pathway with an NF-κB reporter in 293T cells (FIG. 2D).

[2] = molecular target: T1, RB; assay: In vitro binding assay with GST-RB; settings: S35-labeled in vitro translated protein
Experimental: The crude cell lysate of the GST-fusion proteins was prepared and purified according to the manufacture's protocol (Amersham/Pharmacia). [^35S]-methionine-labeled protein was produced by in vitro transcription/translation using the TNT T7-coupled reticulocyte lysate system (Promega). [^35S]-methionine-labeled protein and GST-fusion protein bound to glutathione sepharose 4B beads were incubated in 500 μl of HNE buffer (50 mM Hepes, pH 7.8, 150 mM NaCl, 1 mM EDTA, 1 mM DTT, 1% NP40, and 1× protease inhibitor mix (Complete: Roche)) at 4° C. for 1 hour. Beads were washed four times with HNE buffer, and then analyzed on an SDS-PAGE gradient gel (4-15%). For the detection of endogenous PRMT-2 interaction with RB, MEFs were lysed with WCL buffer (50 mM Hepes, pH 7.8, 400 mM NaCl, 2 mM EDTA, 1 mM DTT, 0.2% NP40, 10% Glycerol, 20 mM α-glycerophosphate, 5 mM NaF, 0.1 mM NaVO4, and 1× protease inhibitor mix). Then, 1 mg of whole cell extracts were incubated with HNE buffer without DTT and 3 μg of antibodies as indicated. The immune complexes were isolated using protein G beads, and washed four times with HNE buffer. The precipitated protein was boiled with SDS-loading buffer and resolved on SDS-PAGE. For immunoprecipitation of HA-tagged protein, transfected cells were lysed with RIPA buffer (phosphate buffer saline containing 1% NP40, 0.5% sodium deoxycholate, 0.1% SDS, and 1× Complete), and 100 μg of whole cell lysates were immunoprecipitated with anti-HA antibodies and washed in RIPA buffer. Western blot analysis was performed as described in Tanner et al. (1998). Circ Res, 82, 396-403.
To test whether PRMT family members interact with RB, S^35-labeled in vitro translated PRMT1, PRMT2, PRMT3, and PRMT4 (CARM1) were incubated with GST-RB fusion proteins or control GST, and co-precipitated labeled proteins were resolved by SDS-PAGE. […] An equal amount of GST-RB and GST were loaded in each lane, verified by Coomassie staining (FIG. 8B).

[3] = test system: HIV-1 LTR; assay: HIV-1 reporter transcription, transient co-transfection; type: cell-based, human; settings: 293T cells, co-transfection
Experimental: Cell culture, transfection, and reporter gene assays. The E1A-transformed, human kidney cell line, 293, and NIH-3T3 cells were maintained in Dulbecco's Modified Eagle Medium (DMEM) supplemented with 10% fetal calf serum and penicillin-streptomycin at 37° C. in 5% carbon dioxide in tissue culture grade Petri dishes. PRMT-2−/− mouse embryo fibroblasts (MEFs) and wild type MEFs were prepared from day 13.5 embryos and maintained in DMEM supplemented with 10% fetal calf serum. MEFs at passage 4 were used in this experiment. Lipofectamine Plus™ reagent (Boehringer Mannheim) was used to transfect both 293 and NIH-3T3 cells according to directions from the manufacturer. […] TNF-α stimulation of cells was done using recombinant TNF-α (200 U/ml) for 12 hours. Transfected cells were harvested at 36 hours, and CAT activity was assayed on 10 to 100 μg of protein from whole cell extracts. CAT assays were performed essentially as described in Leung, K. & Nabel, G. J. Nature 333, 776-778 (1988). To analyze the κB-reporter activity in MEFs, cells were transfected with the reporter (2×kB-Luc) and PRL-TK vector (Promega) using FuGENE6 transfection reagent (Roche). Luciferase activity was analyzed by Dual-Luciferase Reporter Assay System (Promega).
To determine whether PRMT-1, 2 or 3 could affect NF-κB function, their potential to regulate effects on transcription of the human immunodeficiency virus type 1 (HIV-1) was examined. Transient co-transfections were performed using PRMT1, PRMT2 and PRMT3 expression plasmids with an HIV-1 reporter plasmid in the human renal epithelial cell line, 293T.
To determine its dependence on NF-κB, human immunodeficiency virus type 1 (HIV-1) reporter plasmids with wild-type (WT) or mutant (ΔκB) sites were co-transfected transiently with control or PRMT2 expression plasmids in the different cell lines. […] The KB effect was dose-dependent and was also observed with other inducers of NF-κB, including phorbol […] (PMA) (FIG. 2B, right panel).

Row | Molecule | NF-κB activity [1] | binding to RB [2] | effect on transcription of the HIV-1 reporter plasmid [3]
1 | PRMT2-4A: amino acids 141-144 (ILDV) in the Ado-Met domain altered to four consecutive alanines, SEQ ID NO:6 (protein, A synthetic PRMT-2-4A mutant polypeptide) MATSGDCPRSESQGEEPAECSEAGLLQEGVQPEEFVAIADYAATDETQLSFLRGEKILILRQTTADWWWGERAGCCGYIPANHVGKHVDEYDPEDTWQDEEYFGSYGTLKLHLEMLADQPRTTKYHSVILQNKESLTDKVAAAAGCGTGIISLFCAHYARPRAVYAVEASEMAQHTGQLVLQNGFADIITVYQQKVEDVVLPEKVDVLVSEWMGTCLLFEFMIESILYARDAWLKEDGVIWPTMAALHLVPCSADKDYRSKVLFWDNAYEFNLSALKSLAVKEFFSKPKYNHILKPEDCLSEPCTILQLDMRTVQISDLETLRGELRFDIRKAGTLHGFTAWFSVHFQSLQEGQPPQVLSTGPFHPTTHWKQTLFMMDDPVPVHTGDVVTGSVVLQRNPVWRRHMSVALSWAVTSRQDPTSQKVGEKVFPIWR | inhibited NF-κB activity | – | –
2 | PRMT2(1-218): deletion mutant lacking the C-terminal domain, retains SH3 domain and a large part of the AdoMet binding domain (protein) MATSGDCPRSESQGEEPAECSEAGLLQEGVQPEEFVAIADYAATDETQLSFLRGEKILILRQTTADWWWGERAGCCGYIPANHVGKHVDEYDPEDTWQDEEYFGSYGTLKLHLEMLADQPRTTKYHSVILQNKESLTDKVILDVGCGTGIISLFCAHYARPRAVYAVEASEMAQHTGQLVLQNGFADIITVYQQKVEDVVLPEKVDVLVSEWMGTCLL | – | bound GST-RB at levels comparable to that of wild type PRMT2 | –
3 | PRMT2(1-95): deletion mutant lacking the C-terminal and AdoMet binding domains, retains the SH3 domain (protein) MATSGDCPRSESQGEEPAECSEAGLLQEGVQPEEFVAIADYAATDETQLSFLRGEKILILRQTTADWWWGERAGCCGYIPANHVGKHVDEYDPED | – | did not bind GST-RB | –
4 | PRMT3: human protein arginine methyltransferase 3, expression construct (protein) CSLASGATGGRGAVENEEDLPELSDSGDEAAWEDEDDADLPHGKQQTPCLFCNRLFTSAEETFSHCKSEHQFNIDSMVHKHGLEFYGYIKLINFIRLKNPTVEYMNSIYNPVPWEKEEYLKPVLEDDLLLQFDVEDLYEPVSVPFSYPNGLSENTSVVEKLKHMEARALSAEAALARAREDLQKMKQFAQDFVMHTDVRTCSSSTSVIADLQEDEDGVYFSSYGHYGIHEEMLKDKIRTESYRDFIYQNPHIFKDKVVLDVGCGTGILSMFAAKAGAKKVLGVDQSEILYQAMDIIRLNKLEDTITLIKGKIEEVHLPVEKVDVIISEWMGYFLLFESMLDSVLYAKNKYLAKGGSVYPDICTISLVAVSDVNKHADRIAFWDDVYGFKMSCMKKAVIPEAVVEVLDPKTLISEPCGIKHIDCHTTSISDLEFSSDFTLKITRTSMCTAIAGYFDIYFEKNCHNRVVFSTGPQSTKTHWKQTVFLLEKPFSVKAGEALKGKVTVHKNKKDPRSLTVTLTLNNSTQTYGLQ | – | do not bind RB | did not affect transcription
